Laboratory results: patent US20250195679A1, “ANTIBODY-DRUG CONJUGATE AND USE THEREOF” (SHANGHAI HUAOTA BIOPHARMACEUTICAL CO., LTD., priority 2022, published 2025)

B1: Antibody-drug conjugate 1: 900698 antibody cysteine-conjugated to SN-38 via Mc-VC-PAB-DMEDA-PEG linker, DAR about 7.8 (conjugate)
VH: QVQLVESGGGLVKPGGSLRLSCAASGFTFSKYAMSWIRQAPGKGLEWVAEISSGGGYINYADSVKGRFTISRDNAKNSLYLQMNSLRAEDTAVYYCARAIYYYGSSYNYYAMDYWGQGTTVTVSS
VL: DIQMTQSPSSLSASVGDRVTITCRASQDVGTAEAWYQQKPGKAPKLLIYWASTRHTGVPSRFSGSGSGTDFTLTISSLQPEDFATYYCQQYSSYPLTFGQGTKLEIK
B2: Antibody-drug conjugate 2: 900698 antibody cysteine-conjugated to SN-38 via MP2-VC-PAB-DMEDA-PEG linker, DAR about 7.8 (conjugate)
VH: B1 VH
VL: B1 VL
B3: 900698: anti-CD73 antibody, VH SEQ ID NO: 35, VL SEQ ID NO: 34 (antibody, V domains shown)
VH: B1 VH
VL: B1 VL
modifications: 900696, 900698 (VH); 900695, 900698 (VL)

Experiments:
MCF-7 cells = test: Killing of tumor cells not expressing CD73 (CellTiter-Glo); format: cell-based; conditions: cells not expressing CD73, 5 days, FIG. 5
Method: (§1) The specific procedures were as follows: MDA-MB-231 cells and MCF-7 cells were prepared into cell suspensions at densities of 8E4 cells/mL and 7.5E5 cells/mL, respectively, which were then each added onto a 96-well cell culture plate at 100 μL per well. The 96-well cell culture plate was sealed with liquid and then incubated in an incubator at 37° C. with 5% CO2 for 6 h. With an assay medium, the antibody-drug conjugate 1, the antibody-drug conjugate 2, and the 900698 naked antibody were each diluted to 400 μg/mL and then subjected to a 2-fold dilution to give 8 concentrations, resulting in a total of 9 concentrations. The same dilution procedure was performed for the Buffer solution as for the antibody-drug conjugate 1. The gradient dilution solutions were each added at 50 μL/well to the 96-well cell culture plate after the above incubation was completed. Each sample well was then supplemented with 50 μL of the corresponding assay medium. The 96-well cell culture plate was further incubated in an incubator at 37° C. with 5% CO2 for another 5 days. After the incubation was completed, the 96-well plate was removed from the incubator, 100 μL of culture medium was aspirated from each well, and then the equilibrated Celltiter-Glo Luminescent Cell Viability Assay reagent (Promega, #G7573) was added at 100 μL/well. After shaking for reaction in the dark at room temperature for 10 min, 100 μL of culture medium was taken from each well, transferred to the corresponding well of a 96-well black plate, and then subjected to full-wavelength detection using a microplate reader.

MDA-MB-231 cells = test: Killing of tumor cells highly expressing CD73 (CellTiter-Glo); format: cell-based, human; conditions: cells highly expressing CD73, 5 days, FIG. 6
Method: as §1

[1] = target: T1, human CD73 (CHOK1-huCD73-3F4 cells) (Homo sapiens, UniProt P21589); test: Cell binding activity to human CD73 antigen expressed on membrane (flow cytometry); format: cell-based; conditions: FACS, FIG. 2
T1 construct: host or cells: CHOK1-huCD73-3F4 (CHO-K1 clone)
T1 sequence (P21589 27-549): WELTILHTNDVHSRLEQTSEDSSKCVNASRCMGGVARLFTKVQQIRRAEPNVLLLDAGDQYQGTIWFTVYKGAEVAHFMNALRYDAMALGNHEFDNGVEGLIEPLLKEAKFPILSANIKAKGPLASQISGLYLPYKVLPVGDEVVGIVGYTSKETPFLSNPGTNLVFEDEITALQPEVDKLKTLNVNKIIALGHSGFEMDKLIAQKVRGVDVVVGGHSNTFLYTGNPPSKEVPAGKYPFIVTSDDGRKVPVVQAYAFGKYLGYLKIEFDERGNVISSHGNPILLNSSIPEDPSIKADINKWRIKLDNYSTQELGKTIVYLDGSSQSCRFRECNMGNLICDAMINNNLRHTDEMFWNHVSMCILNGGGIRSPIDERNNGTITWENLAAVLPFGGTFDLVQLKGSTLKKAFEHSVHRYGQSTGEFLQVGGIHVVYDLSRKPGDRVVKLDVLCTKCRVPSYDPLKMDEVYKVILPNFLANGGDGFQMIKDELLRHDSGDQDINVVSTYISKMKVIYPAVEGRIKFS
Method: The binding activity of the antibody-drug conjugate 1 and the antibody-drug conjugate 2 prepared in Example 1 and the 900698 naked antibody to cells expressing human CD73 (CHOK1-huCD73-3F4, Huabo Biopharm) was assayed.
All antigen-binding proteins were diluted to 30 μg/mL with a solution of 1% BSA in PBS (1% BSA/PBS), followed by a 3-fold dilution across 10 gradients. The diluted proteins were each added at 20 μL per well to a 96-well U-bottom plate, with a negative control (adding only 1% BSA/PBS) set up simultaneously. A suspension of cells expressing human CD73 (CHOK1-huCD73-3F4, Huabo Biopharm) in the logarithmic growth phase was taken and centrifuged (1000 rpm×5 min), and then the culture medium was discarded. The cells were resuspended in 1% BSA/PBS until the viable cell density was 1×10^6 cells/mL, then added at 20 μL (2×10^4 cells) per well to the 96-well U-bottom plate containing the anti-CD73 antigen-binding proteins, and incubated at room temperature for reaction for 30 min. The reacted cells in the 96-well U-bottom plate were resuspended in 1% BSA/PBS and centrifuged (300 g×3 min), and then the supernatant was discarded. This washing process was performed once. Then, a 1:200 dilution of PE-goat anti-human-Fc (Jackson ImmunoResearch, #109-115-098) was added, and the cells were incubated in the dark at room temperature for reaction for 15 min. The reacted cells in the 96-well U-bottom plate were further resuspended in 1% BSA/PBS and centrifuged (300 g×3 min), and then the supernatant was discarded. This washing process was performed 3 times. Finally, the cells were resuspended in 100 μL of 1% BSA/PBS per well, and the fluorescence intensity in the PE channel was detected using a flow cytometer (BD, #Canto II).
The results for the binding activity of the antibody-drug conjugate 1, the antibody-drug conjugate 2, and the 900698 naked antibody are shown in FIG. 2 (represented as 1-3 in FIG. 2, respectively).

Monkey CD73 = test: Biacore binding kinetics with monkey CD73 protein; conditions: Monkey CD73, Biacore T200, protein A chip, 25° C., 1:1 binding model
Method: The binding kinetics of the antibody-drug conjugate 1 and the antibody-drug conjugate 2 prepared in Example 1 and the 900698 naked antibody with a human CD73 protein (manufacturer: ACRO Biosystems, Cat. No. CD3-H52H7) and a monkey CD73 protein (manufacturer: Novoprotein, Cat. No. CI21) were assayed using Biacore (GE, model: T200), with an assay buffer of HBS-EP+ (pH 7.4) and a protein A chip (manufacturer: GE, Cat. No. 29-1275-56).
The temperature for the sample compartment and the flow path was set to 25° C. The protein A chip captured each antigen-binding protein as a ligand, fixing about 100 RU. The human CD73 protein was diluted with the assay buffer to a series of concentrations of 50 nM, 25 nM, 12.5 nM, 6.25 nM, 3.12 nM, and 1.57 nM, serving as analytes, and the assay buffer was used as a 0 concentration control. At a flow rate of 30 μL/min, association was conducted for 120 s, and dissociation was conducted for 600 s. Glycine (10 mM, pH 1.5) was used for regeneration at a flow rate of 50 μL/min for 60 s in a multi-cycle kinetic assay. A 1:1 binding model was used, and the Fit Local mode was selected to determine the association rate constant (ka), dissociation rate constant (kd), and equilibrium dissociation constant (KD).

| Molecule | killing effect on MCF-7 cells (MCF-7 cells) | killing effect on MDA-MB-231 cells (MDA-MB-231 cells) | binding activity (affinity) for cells expressing human CD73 [1] | ka (Monkey CD73) [M⁻¹ s⁻¹] | kd (Monkey CD73) [s⁻¹] |
| --- | --- | --- | --- | --- | --- |
| B1 | no killing effect | excellent killing effects | good affinity | 55000 | 1.92e-06 |
| B2 | no killing effect | excellent killing effects | good affinity | 454000 | 0.000114 |
| B3 | no killing effect | no killing effect | good affinity | 148000 | 1.8e-05 |
